# The supplement of paper PMC9112550, “Optimization of the antimicrobial peptide Bac7 by deep mutational scanning” (BMC Biology, 2022)
# Tested on: Escherichia coli TOP10
# Assay: shrunken log2 fold change of peptide-encoding DNA abundance (4.5 h post-induction vs induction); higher = less antimicrobial activity (less host growth inhibition)
# Conditions: time post-induction: 4.5 h; library: site-saturation at positions 5, 18, 19, 20
# 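Further: peptides expressed intracellularly from a pBAD plasmid library in pooled LB shake-flask culture, induced with 0.3% L-arabinose, DNA abundance read by NGS, three biological replicates, DESeq2 with apeglm shrinkage.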
row,Sequence,shrunken log2 fold change
1,RRIRHRPPRLPRPRPRPKMDPRP,-0.014
2,RRIRNRPPRLPRPRPRPKFWPRP,0.177
3,RRIRERPPRLPRPRPRPPLLPRP,-0.0533
4,RRIRPRPPRLPRPRPRPKFMPRP,-0.171
5,RRIRQRPPRLPRPRPRPWYGPRP,-0.191
6,RRIRPRPPRLPRPRPRPQATPRP,-0.2
7,RRIRMRPPRLPRPRPRPFFAPRP,0.445
8,RRIRYRPPRLPRPRPRPDHGPRP,-0.0075
9,RRIRVRPPRLPRPRPRPLPLPRP,0.0752
10,RRIRQRPPRLPRPRPRPNRHPRP,0.115
11,RRIRTRPPRLPRPRPRPYCIPRP,-0.205
12,RRIRFRPPRLPRPRPRPEQRPRP,-0.0295
13,RRIRNRPPRLPRPRPRPTHKPRP,0.322
14,RRIRDRPPRLPRPRPRPNLGPRP,-0.00884
15,RRIRIRPPRLPRPRPRPRSFPRP,-0.0641
16,RRIRIRPPRLPRPRPRPTNLPRP,-0.606
17,RRIRQRPPRLPRPRPRPSPWPRP,0.433
18,RRIRKRPPRLPRPRPRPDQDPRP,0.0345
19,RRIRQRPPRLPRPRPRPWSAPRP,-0.277
20,RRIRDRPPRLPRPRPRPEGCPRP,0.0171
21,RRIRWRPPRLPRPRPRPQDFPRP,0.203
22,RRIRHRPPRLPRPRPRPFHIPRP,-0.0345
23,RRIRMRPPRLPRPRPRPEKTPRP,-0.0246
24,RRIRHRPPRLPRPRPRPTIPPRP,-0.028
25,RRIRHRPPRLPRPRPRPNDDPRP,-0.259

row,Sequence,shrunken log2 fold change
1,RRIRRRPPRLPRPRPRPLVLPRP,0.0551
2,RRIRGRPPRLPRPRPRPLANPRP,0.835
3,RRIRERPPRLPRPRPRPKSIPRP,-0.323
4,RRIRARPPRLPRPRPRPHHPPRP,-0.242
5,RRIRNRPPRLPRPRPRPRRCPRP,0.291
6,RRIRTRPPRLPRPRPRPCAAPRP,0.0451
7,RRIRWRPPRLPRPRPRPYYQPRP,-0.297
8,RRIRRRPPRLPRPRPRPVHWPRP,0.00204
9,RRIRSRPPRLPRPRPRPEVEPRP,0.112
10,RRIRVRPPRLPRPRPRPCIWPRP,0.0495
11,RRIRARPPRLPRPRPRPQPNPRP,0.396
12,RRIRARPPRLPRPRPRPHCCPRP,0.134
13,RRIRYRPPRLPRPRPRPQTSPRP,-1.22
14,RRIRRRPPRLPRPRPRPANQPRP,0.0564
15,RRIRIRPPRLPRPRPRPAPFPRP,0.271
16,RRIRLRPPRLPRPRPRPGITPRP,-0.322
17,RRIRHRPPRLPRPRPRPRNVPRP,-0.00885
18,RRIRYRPPRLPRPRPRPVNKPRP,-0.0557
19,RRIRHRPPRLPRPRPRPLLNPRP,-0.443
20,RRIRPRPPRLPRPRPRPMNAPRP,-0.158
21,RRIRERPPRLPRPRPRPTDPPRP,-0.152
22,RRIRTRPPRLPRPRPRPQSYPRP,-0.0281
23,RRIRVRPPRLPRPRPRPKDVPRP,0.00902
24,RRIRSRPPRLPRPRPRPDITPRP,0.0856
25,RRIRARPPRLPRPRPRPTWWPRP,0.568
